Test results as given in patent publication US9895420.

Molecular target: chimeric-IL-1Ra (IL-1beta propeptide residues 1-120, HindIII-derived Lys-Leu linker, mature IL-1Ra)

B1: neutrophil elastase (Athens Research & Technology) (protein)
chain: IVGGRRARPHAWPFMVSLQLRGGHFCGATLIAPNFVMSAAHCVANVNVRAVRVVLGAHNLSRREPTRQVFAVQRIFENGYDPVNLLNDIVILQLNGSATINANVQVAQLPAQGRRLGNGVQCLAMGWGLLGRNRGIASVLQELNVTVVTSLCRRSNVCTLVRGRQAGVCFGDSGSPLVCNGLIHGIASFVRGGCASGLYPDAFAPVAQFVNWIDSIIQ
In the case of B1, the “cleavage of chimeric-IL-1Ra, Western blot with anti-IL-1Ra antibody” value is reported as “chimeric-IL-1Ra is cleaved to form a ˜20 kDa fragment, comparable in size to IL-1Ra”.
